Experimental data reported in the supplement of paper PMC12764529.
± gives the half width of the 95% confidence interval.

Key:
[1] = folding stability dG unfold from trypsin proteolysis; higher = more stable
Summary of the method: (§1)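 How resistant each design was to proteolysis was captured as K50, inferred by Bayesian fitting of sequencing counts. Unfolding free energy was then derived relative to a sequence-predicted unfolded-state K50 and a shared folded-state K50, per protease or combined. Digestion used trypsin and chymotrypsin at 11 threefold-diluted concentrations plus a no-protease condition, on mini-proteins under 80 residues without cysteine in a PA-tagged cDNA display construct. Designs were kept only when AlphaFold2 dimer inter-PAE was above 15.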

[2] = folding stability dG unfold from chymotrypsin proteolysis; higher = more stable
Summary of the method: as §1

[3] = folding stability dG unfold (combined trypsin and chymotrypsin); higher = more stable
Summary of the method: as §1

| Sequence | folding stability dG unfold [1] | folding stability dG unfold [2] | folding stability dG unfold [3] |
| --- | --- | --- | --- |
| SAGGSMIPRLEERVLEVEVDSEEEAEKLKKELKEKIEKEHPGVEVKFELRKLPNGKYLLTITVVIPILSAGG [r13_17_JUSTAS] | 2.89 ± 0.058 kcal/mol | 3.93 ± 0.041 kcal/mol | 3.64 ± 0.077 kcal/mol |
| SAGGSMKIKVEYEELPNGKMVIRIDIPPEENNMTPEQVETIAKEIAEEFPNVKVETTPGSIWIRVPSAGGSA [r2_256_TrROS] | 1.38 ± 0.1 kcal/mol | 1.21 ± 0.2 kcal/mol | 1.24 ± 0.16 kcal/mol |
| SAGGSMKITKIEIEKLPNGEYKITITKDENGNITVTVTNKNGKKKTITLKVKPEDVEEVLKELLKKSAGGSA [r2_298_TrROS_Hall] | 1.6 ± 0.051 kcal/mol | 3.01 ± 0.06 kcal/mol | 2.73 ± 0.1 kcal/mol |
| SAGGSMKIVKIEKIDLAKLKPGDIIEVKLENGEIYRIRIEKNEDGKYTVYIYNKNGELVEEFEFDVSAGGSA [r2_323_TrROS_Hall] | 2.27 ± 0.12 kcal/mol | 4.25 ± 0.034 kcal/mol | 3.84 ± 0.097 kcal/mol |
| SAGGSMKLTTTTPDGKPFEADVTEYPTFYKITFKVGNKEYTLLANPSTNTVDGNVDGFPFKLKLNPSAGGSA [r2_194_TrMRF] | 1.28 ± 0.1 kcal/mol | 1.25 ± 0.18 kcal/mol | 1.25 ± 0.18 kcal/mol |
| SAGGSMKPSKVTEVTHPDGTRFTVTEYPEVPLLTLTIERPETGTTTTVKTKSREEAEKVLAELVASSAGGSA [r2_70_JUSTAS] | 0.696 ± 0.068 kcal/mol | 0.306 ± 0.16 kcal/mol | 0.596 ± 0.11 kcal/mol |
| SAGGSMKPVKKTIVILKPSSVTEEEVKEEVVEKAKELGLKVKPIRTEVYPLPDYYLVVVEVEIEVPPESAGG [r13_351_TrMRF] | 1.56 ± 0.11 kcal/mol | 1.24 ± 0.072 kcal/mol | 1.38 ± 0.21 kcal/mol |
| SAGGSMKTITDPGNLSEEEIKKILSKFPPNTTVTIEFPDATHTVTLNPDKIEISRDPSYPNFRITITISSAG [r5_373_JUSTAS] | 1.31 ± 0.029 kcal/mol | 2.01 ± 0.036 kcal/mol | 1.72 ± 0.1 kcal/mol |
| SAGGSMKVEVTVTETSTLGDGTRTYTVAVLIDGTPLTFTFPFTSEEEFREAVEEWAKERGVEITLTPSSAGG [r13_750_JUSTAS] | 3.7 ± 0.084 kcal/mol | 4.54 ± 0.049 kcal/mol | 4.25 ± 0.14 kcal/mol |
| SAGGSMPETVKVRVRNADGSLLTLEITRDADGELTVTLEVDGKTVELSLEELEKLPPGVEVVEVEPSAGGSA [r2_431_TrROS_Hall] | 1.9 ± 0.087 kcal/mol | 2.44 ± 0.087 kcal/mol | 2.26 ± 0.18 kcal/mol |
| SAGGSMPKGQEVKIEIEHRRHNGRRYWRVSVEVPNGKDIEIPFDDPEEMPPEMKKQIENLAKEIVKSAGGSA [r2_17_TrROS] | 0.146 ± 0.11 kcal/mol | 1.11 ± 0.25 kcal/mol | 0.874 ± 0.26 kcal/mol |
| SAGGSMQSVTSYDPNGVTYTTEFLPDEDVVTYTKTTDGTVTTTKVERLDEDGVPVPLSTSTTTLGGSAGGSA [r2_60_JUSTAS] | 0.208 ± 0.085 kcal/mol | -0.217 ± 0.29 kcal/mol | 0.107 ± 0.16 kcal/mol |
| SAGGSMRFKIEDINIGIIPHPPGWLLIPITVKVKFEEPDPDNGEPKTVEHEFPIMIMMPKDDLDDLSAGGSA [r2_184_TrROS] | 2.01 ± 0.072 kcal/mol | 2.68 ± 0.045 kcal/mol | 2.44 ± 0.14 kcal/mol |
| SAGGSMSESEVVEVTVGGKPVTITVHREDNRYSAEVTLPPGVRVVLPFGGPESPEKAVEEAVRALESAGGSA [r2_92_JUSTAS] | 0.352 ± 0.036 kcal/mol | 0.508 ± 0.046 kcal/mol | 0.425 ± 0.065 kcal/mol |
| SAGGSMSIPLKTEEDVKKAVEYIKQKLLEEGAPEGLKIDKVEVTKLPDGTYKITITFPNKTFELVGSAGGSA [r2_120_JUSTAS] | 2.56 ± 0.052 kcal/mol | 2.64 ± 0.047 kcal/mol | 2.64 ± 0.079 kcal/mol |
| SAGGSMSPALNKKLDVEEITADEEEAKKIAKESKKPVIVTLPDGTVLRFNTDGSVTEYPLPPPELLSAGGSA [r2_34_JUSTAS] | 0.443 ± 0.07 kcal/mol | 1.12 ± 0.12 kcal/mol | 0.958 ± 0.12 kcal/mol |
| SAGGSMSTSTLVRREIASVDPETGLRVVRVEVEEVDYGFDPKTGTVLGVSPVSPVSESVLLLPADAPPESAG [r5_903_JUSTAS] | -0.652 ± 0.23 kcal/mol | -0.175 ± 0.22 kcal/mol | -0.286 ± 0.23 kcal/mol |
| SAGGSMSVEVEVLAKVKLPNGEEVTFPVRVTYNPETGEVTVEIDLPKEVFERLKELYPDGIIAPEPSAGGSA [r2_409_TrMRF] | 2.79 ± 0.11 kcal/mol | 3.5 ± 0.078 kcal/mol | 3.27 ± 0.048 kcal/mol |
